From patent publication US20240270857A1 (CHIA TAI TIANQING PHARMACEUTICAL GROUP, published 2024) come the findings set out here.

Assay [1] deals with T1, human IL-36R overexpressed on 293T-hIL36R-NFκB cells (human, UniProt Q9HB29 20-575).
T1 sequence: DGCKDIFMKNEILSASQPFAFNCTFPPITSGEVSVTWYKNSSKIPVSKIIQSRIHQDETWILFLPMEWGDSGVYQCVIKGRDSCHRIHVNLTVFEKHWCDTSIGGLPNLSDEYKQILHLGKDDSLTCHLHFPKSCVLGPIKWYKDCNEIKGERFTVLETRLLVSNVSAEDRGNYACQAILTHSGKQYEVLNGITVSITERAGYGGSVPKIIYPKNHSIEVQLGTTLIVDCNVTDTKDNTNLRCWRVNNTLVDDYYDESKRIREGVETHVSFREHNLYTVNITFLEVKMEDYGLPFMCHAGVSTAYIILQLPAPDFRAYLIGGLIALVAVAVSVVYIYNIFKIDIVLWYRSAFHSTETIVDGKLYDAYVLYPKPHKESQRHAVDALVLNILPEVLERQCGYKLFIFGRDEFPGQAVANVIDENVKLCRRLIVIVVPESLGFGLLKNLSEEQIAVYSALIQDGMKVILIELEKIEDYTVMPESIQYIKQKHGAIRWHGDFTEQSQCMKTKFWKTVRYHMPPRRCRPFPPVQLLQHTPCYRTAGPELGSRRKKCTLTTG
Nature of the assay: cell-based or functional assay.

Assay [2] concerns the target T1, human IL-36R overexpressed on …. Nature of the assay: cell-based or functional assay. This is another data set of the same source.
Assay [3] has the same target. As to the kind of experiment: cell-based or functional assay. This is another data set of the same source.
For assay [4], the target named is T2, IL-36R naturally expressed on OVCAR8 cells and on normal human epidermal keratinocytes (NHK cells) (human, UniProt Q9HB29 20-575).
T2 sequence (looked up): T1 sequence
As to the kind of experiment: cell-based or functional assay.

For assay [5], the target named is T2, IL-36R naturally expressed on OVCAR8 …. Nature of the assay: cell-based or functional assay. The source holds these as a separate data set.
Assay [6] shares this target. Nature of the assay: cell-based or functional assay. The source holds these as a separate data set.
Assay [7] deals with T3, Human IL-1Rrp2/IL-1R6 protein, His Tag (ACROBiosystems, IL2-H52H6) (human, UniProt Q9HB29 20-335).
T3 construct: Bought protein; the soluble protein is likely only the extracellular part; also called hIL-36R; human IL36R antigen; not shown: His tag
T3 sequence: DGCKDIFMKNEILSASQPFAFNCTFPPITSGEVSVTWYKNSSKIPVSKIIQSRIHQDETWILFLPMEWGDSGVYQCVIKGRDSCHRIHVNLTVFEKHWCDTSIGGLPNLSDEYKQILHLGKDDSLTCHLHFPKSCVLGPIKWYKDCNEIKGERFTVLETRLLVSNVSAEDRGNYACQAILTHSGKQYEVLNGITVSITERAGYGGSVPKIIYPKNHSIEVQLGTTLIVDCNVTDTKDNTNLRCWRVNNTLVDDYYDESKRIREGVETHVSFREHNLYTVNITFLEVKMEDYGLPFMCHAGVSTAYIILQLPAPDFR
Nature of the assay: BLI (ForteBio Octet), antibody on ProA sensor, 1:1 model. The procedure:
The affinity of anti-IL-36R antibodies to CynoIL36R-ECD mFc and human IL-1Rrp2/IL-IR6 protein, His Tag (ACROBiosystems, IL2-H52H6) was measured by a ForteBio molecular interaction instrument. […] And then the biosensor was used to bind CynoIL36R-ECD mFc or human IL-1Rrp2/IL-1R6 protein, His Tag which was diluted by a gradient (the initial concentration was 200 nM, 2-fold gradient dilution), the response signals were detected in real time using a Fortebio molecular interaction instrument (SARTORIUS, octet red 96e), and association and dissociation curves were obtained. After the completion of dissociation in each cycle, the biosensor was regenerated for the next capture; the procedure was repeated until the affinity of the different anti-IL-36R antibodies for IL-36R was determined. The resulting data were analyzed by Fortebio Data Analysis 11.0 software in a 1:1 (Langmuir) binding model to determine kₐ (kₒₙ) and kd (koff) values, and the dissociation constant KD was calculated by KD=kd/kₐ. The detection method essentially followed the manufacturer's recommendations, and more information could be found at www.fortebio.com.

For assay [8], the target named is T1, human IL-36R overexpressed on …. As to the kind of experiment: FACS on 293T-hIL36R-NFκB cells, ratio of MFI to background MFI. As to the method:
After the cells was washed with PBS, the cells were resuspended with 100 μL of PBS and then the fluorescence signal was detected using a flow cytometer (BD, Accuri C6). […] The ratio was the ratio of mean fluorescence intensity (MFI) of the experimental group/the background MFI, and the resulting data were analyzed using GraphPad Prism.

B1: chimeric 74B4D6 antibody (antibody, human IgG4 S228P, kappa, V domains shown)
VH: EVQLQQPGAELGKPGASVKMACKASGYTFTNYWIHWVKQRPGQGLEWIGTIDPSENYTNYNQKFKGKATLTVDTSSSTAYMQLSSLTSEDKAVYFCTGSSFSYWGQGTLVTVSA
VL: QNVLTQSPAIMSVSPGEKVTMTCSASSSVSFIHWFQQKPGTSPKLWIYTTSNLASGVPARFSGSGSGTSYSLTISRMEAEDAATYYCQQRSSYPLTFGAGTKLELKR
notes: Mouse variable regions on human IgG4 / kappa; also called xi74B4D6
As to B1, in assay [1], the “IC50; NFκB-luciferase reporter in 293T-hIL36R-NFκB cells stimulated with hIL36α, inhibition rate %” value was found to be 12.9 nM. Further, the “IC50; NFκB-luciferase reporter in 293T-hIL36R-NFκB cells stimulated with hIL36β, inhibition rate %” value in assay [2] amounted to 21.5 nM. Moreover, the “IC50; NFκB-luciferase reporter in 293T-hIL36R-NFκB cells stimulated with hIL36γ, inhibition rate %” value in assay [3] stood at 25.4 nM. Also, the “IC50; IL-8 production of OVCAR8 cells stimulated with hIL36α, inhibition rate %” value in assay [4] came out at 0.73 nM. Moreover, the “IC50; IL-8 production of OVCAR8 cells stimulated with hIL36β, inhibition rate %” value in assay [5] was 0.972 nM. In addition, the “IC50; IL-8 production of OVCAR8 cells stimulated with hIL36γ, inhibition rate %” value in assay [6] was 1.05 nM. In assay [7], the dissociation constant Kd came to 4.72 nM, the koff amounted to 0.000332 s⁻¹ and the kon came to 70400 M⁻¹ s⁻¹. Besides, the concentration for a half-maximal effect (EC50) in assay [8] worked out at 15.5 nM.
